Reference: patent US20100330094A1 (NOVIMMUNE S A, published 2010)

Experiments:
[1] = biological target: T1, recombinant human IP-10 (hIP-10) (human, UniProt P02778 22-98); test: cell-based or functional assay
T1 sequence (looked up): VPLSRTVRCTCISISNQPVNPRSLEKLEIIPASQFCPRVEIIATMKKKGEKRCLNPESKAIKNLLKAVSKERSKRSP

[2] = biological target: T1, recombinant human IP-10 (hIP-10); test: cell-based or functional assay; remark: listed apart in the source

| Binder | Calcium flux IC50 (nM); 10 nM hIP-10; hCXCR3 L1.2 cells [1] [nM] | Chemotaxis IC50 (nM); 1 nM hIP-10; hCXCR3 L1.2 cells [1] [nM] | Chemotaxis IC50 (nM); 2 nM hIP-10; hCXCR3 L1.2 cells [1] [nM] | Chemotaxis IC50 (nM); 0.2 nM hIP-10; hCXCR3 L1.2 cells [1] [nM] | Chemotaxis IC50 (nM); 1 nM rhIP-10 [2] [nM] |
| --- | --- | --- | --- | --- | --- |
| CC21R3P1_H6, scFv format (scFv) QVQLVESGGGVAQSGKSLRLSCAASGFTFSNYGMHWVRQAPGKGLEWLAVISYDGSNRYYADSVKGRFTISRDNSNNTLNLQMSSLRAEDTALYYCAKDAGGPLDYWGKGTLVTVSSQSVLTQLTQPPSVSLAPGQTATITCGGDNIGRKSVHWYQQKPGQAPVLVVYDDTDRPSGIPERFSGSNSGNTATLTISRVEAGDEADYYCQVWDSSIDHSWVFGGGTKLTVL | 71 | 36 | – | – | – |
| CB1R3P4_D3, scFv format (scFv) QVQLVQFGGGVVQPGRSLRLSCAASGFTFSSYGMHWVRQAPGKGLEWVAVISYDGSIKYYADSVKGRFTISRENAKNSVYLQMDSLRVGDTAVYYCTRAGYSTDWHPDYWGQGTMVTVSSSSELTQDPAVSVALGQTVRITCQGDSLRSYYASWYQQKPGQAPVLAIYGKNNRPSGIPDRFSGSSSGNTASLTITGAQAEDEADYYCNSRDSSGNHVVFGGGTKLTVL | 179 | 72 | – | – | – |
| CB2R2P4_C3, scFv format (scFv) QVTLRESGPALVKPTQTLTLTCTFSGFSLTTSGMSVIWIRQPPGKALEWLARIDSDDEKHYNTSLKTRLAISKDTSKNQVVLTMTNMDPVDTGTYYCARLRAGSGPYVFDSWGQGTTVTVSSQSVLTQPPSASGTPGQRVTISCSGSSSNIGSNTVNWYQRLPGAAPQLLIYNNDQRPSGIPDRFSGSKSGTSGSLVISGLQSEDEADYYCASWDDSLNGRVFGGGTKLTVL | 14 | 15 | – | – | – |
| CB21R3P6_G7, scFv format (scFv) QVQLVQSGAEVKKPGSSVTVSCKASGGTFSSFSITWLRQAPGQGLEWMGEITPMFGIANYAQKFQGRVTISADESTSTAYMELSGLTSEDTAMYYCARDGRFDVSDLLTDKPKVTINYNGMDVWGQGTLVTVSSQSVLTQPPSASGTPGQRVTISCSGSSSNIGSNTVNWYQRLPGAAPQLLIYNNDQRPSGIPDRFSGSKSGTSGSLVISGLQSEDEADYYCASWDDSLNGRVFGGGTKLTVL | 46 | 10 | – | – | – |
| CC21R3P1_B9, scFv format (scFv) EVQLVQSGGGVVQPGRSLRLSCAASGFTFSSYGMHWVRQAPGKGLEWVAVISYDGSNKYYADSVKGRFTISRDNSKNTLYLQMNSLRAEDTAVYYCAKDGGWYDWYFDLWGRGTLVTVSSSSELTQDPDVSVALGQTVRITCQGDSLTSYYASWYQQKPGQAPVLVISGNDNRPSGIPDRFSGSNSGNTASLTITGAQAEDAADYYCGSRDSSGYQVVFGAGTKLTVL | 107 | 107 | – | – | – |
| CC21R3P1_C1a, scFv format (scFv) QVQLVESGGGVVQPGRSLRLSCAASGFTFSSYGMHWVRQAPGKGLEWVAVISYDGSNKYYADSVKGRFTISRDNSKNTLYLQMNSLRAEDTAVYYCAKDEFDAFDIWGRGTMVTVSSSYVLTQPPSVSVAPGTTARITCGGNNIGSRSVHWYQQKPGQAPLLVIYYDSDRPSGIPLRFSGSNSGNTATLTISRVEAGDEADYYCQVWDTSSGHYVFGTGTKVTVL | 37 | 108 | – | – | – |
| CC21R3P1_F1, scFv format (scFv) QVQLVESGGGVVQPGRSHTLSCAASGFAFKNSGIHWVRQAPGKGLEWVAVISYDGSNKFYADSVKGRFTISRDNSQNTVYLQMTDLRPDDTAVYYCARDGSESEYLDYWGKGTLVTVSSNFMLTQPHSVSESPGKTVTISCTGSGGSIDRNYVQWYQQRPGSAPITVIYEDNQRPSGVPDRFSGSIDSSSNSASLTISGLRTDDEADYYCQSYDSINLWVFGGGTKVTVL | 36 | – | 18 | – | – |
| CC21R3P1_E7, scFv format (scFv) QLVESGGGVVQPGRSLRLSCAASGFTFSTYGMHWVRQAPGKGLEWVAVISYDGGTKYYADSVKGRFTISRDNSMKTLYLQMNSLRTEDTAVYYCAKDLGDLPPGLDYWGQGTMVTVSSQSVLTQPPSASGTPGQRVTISCSGSSSNIGSNTVNWYQQLPGAAPKLLIYTNNQRPSGVPDRFSGSKSGTSASLAISGLQSEDEADYYCAAWDDSLNGNVVFGGGTKVTVL | 250 | – | 71 | – | – |
| CC21R3P4_F4, scFv format (scFv) QVQLVESGGGVAHSGKSLRLSCAASGFTFSNYGMHWVRQAPGKGLEWLAVISYDGSNRYYADSVKGRFTISRDNSNNTLNLQMSSLRAEDTALYYCAKDAGGPLDYWGRGTLVTVSSSYVLTQPPSVSVAPGQMARITCGGNNIGDKSVQWYQQRPGQAPLLVVYDDSDRPSGIPERFSGSYSRNTATLTISRVEAGDEADYYCQVWDSSSDHPEVVFGGGTKLTVL | 107 | 36 | – | – | – |
| CF1N1R3P4_C7, scFv format (scFv) QVQLVESGGGVVQPGRSLRLSCAASGFTFSNSGIHWVRQAPGKGLEWVAVISYDGSNKFYADSVKGRFTISRDNSKNTLYLQMNSLRAEDTAVYYCAKLRDNAEYTDYWGQGTLVTVSSNFMLTQPHSVSESPGKTVTISCTGSGGSIDRNYVQWYQQRPGSSPTTVIYEDNQRPSGVPDRFSGSIDSSSNSASLTISGLKTEDEADYYCQSYDPLPVWVFGGGTKLTVL | – | – | – | 0.12 | – |
| CF1H1R3P3_G11, scFv format (scFv) QVQLVESGGGVVQPGRSLRLSCAASGFTFSNSGIHWVRQAPGKGLEWVAVISYDGSNKFYADSVKGRFTISRDNSKNTLYLQMNSLRAEDTAVYYCAKLRDNGEYLDYWGQGTLVTVSSNFMLTQPHSVSESPGKTVTISCTGSGGSIDRNYVQWYQQRPGSSPTTVIYEDNQRPSGVPDRFSGSIDSSSNSASLTISGLKTEDEADYYCQSYDPLPVWVFGGGTKLTVL | 7.8 | – | – | 0.39 | – |
| CF1H1R3P4_B5, scFv format (scFv) QVQLVESGGGVVQPGRSLRLSCAASGFTFSNSGIHWVRQAPGKGLEWVAVISYDGSNKFYADSVKGRFTISRDNSKNTLYLQMNSLRAEDTAVYYCAKLRDNGEYLDYWGQGTLVTVSSNFMLTQPHSVSESPGKTVTISCTGSGGSIDRNYVQWYQQRPGSSPTTVIYEDNQRPSGVPDRFSGSIDSSSNSASLTISGLKTEDEADYYCQSYVETPEWVFGGGTKLTVL | 2.4 | – | – | 0.51 | – |
| CE7C1R3H8_J9, scFv format (scFv) QVQLVESGGGVVQPGRSLRLSCAASGFTFSTYGMHWVRQAPGKGLEWVAVISYDGGTKYYADSVKGRFTISRDNSMKTLYLQMNSLRTEDTAVYYCAKDLGDLPPGLDYWGQGTMVTVSSQSVLTQPPSASGTPGQRVTISCSGSSSNIGSNTVNWYQQLPGAAPKLLIYTNNQRPSGVPDRFSGSKSGTSASLAISGLQSEDEADYYCAAWDDSSEPRVVFGGGTKVTVL | – | 0.9 | – | – | – |
| CB21R3P1_F1, scFv format (scFv) QVQLVESGGGVVRPGRSLRLSCAASGFTFSSYGMHWVRQAPGKGLEWVAVISYDGSIKYYADSVKGRFTISRDNSKNTLYLQMNSLRAEDTAIYYCARVMGTDPHSYYYMDVWGKGTLVTVSSSSELTQDPAVSVALGQTVRITCQGDSLRSYYASWYQRKPGQAPVLVIYGKNNRPSGIPDRFSGSSSGNTASLTITGAQAEDEADYYCNSRDSSGNHVLFGGGTKLTVL | 36 | – | 40 | – | – |
| CC21R3P3_C1, scFv format (scFv) QVQLVESGGGVVQPGRSLRLSCAASGFTFSSYGMHWVRQAPGKGLEWVAVISYDGSIKYYADSVKGRFTISRDNSRNTLYLQMNSLRPEDTAVYYCAKDWGFSGSLTFDYWGQGTMVTVSSSYVLTQPPSVSVAPGKTARITCGGNNIGSKSVHWYQQKPGQAPVLVIYYDSDRPSGIPERFSGSNSGNTATLTISRVEAGDEADYYCQVWDSSSDHVVFGGGTKVTVL | 71 | 72 | – | – | – |
| CB21R3P3_E5, scFv format (scFv) QVQLVESGGGVVQPGRSLRLSCAASGFTFSSYGMHWVRQAPGKGLEWVAVISYDGSIKYYADSVKGRFTISRDNSKNTLYLQMNSLRAEDAAVYYCARAPDGHQLDYWGRGTLVTVSSNFMLTQPHSVSESPGKTVTISCTGSSGSIASNYVQWYQQRPGSAPTTVIYEDDQRPSDVPDRFSGSIDSSSNSASLTISGLRTEDEADYYCQSYVSSKWVFGGGTKLTVL | 39 | – | 36 | – | – |
| CF1A11R3P3_F3, scFv format (scFv, V domains shown, not shown: small tags and cut ends) VH: QVQLVESGGGVVQPGRSLRLSCAASGFTFSNSGIHWVRQAPGKGLEWVAVISYDGSNKFYADSVKGRFTISRDNSKNTLYLQMNSLRAEDTAVYYCAKLRDNGEYLDYWGQGTLVTVSS VL: NFMLTQPHSVSESPGKTVTISCTGSGGSIDRNYVQWYQQRPGSAPITVIYEDNQRPSGVPDRFSGSIDSSSNSASLTISGLRTDDEADYYCQSYDSINLWVFGGGTKVTVL | 14 | 1.8 | – | – | – |
| CB21R3P3_E5, IgG1 format (antibody, V domains shown) VH: QVQLVESGGGVVQPGRSLRLSCAASGFTFSSYGMHWVRQAPGKGLEWVAVISYDGSIKYYADSVKGRFTISRDNSKNTLYLQMNSLRAEDAAVYYCARAPDGHQLDYWGRGTLVTVSS VL: NFMLTQPHSVSESPGKTVTISCTGSSGSIASNYVQWYQQRPGSAPTTVIYEDDQRPSDVPDRFSGSIDSSSNSASLTISGLRTEDEADYYCQSYVSSKWVFGGGTKLTVL | – | – | – | – | 122 |
